# Measurements as given in article PMC5897841, “Development of a multipurpose scaffold for the display of peptide loops” (Protein Engineering, Design and Selection, 2017).
# Legend:
# [1] = target: T1, CK2α kinase (Homo sapiens, UniProt P68400); experiment: Sedimentation velocity AUC, CK2α / RAD-CK2β; assay type: binding; conditions: 20°C, 20 mM HEPES pH 7.5, 500 mM NaCl
# T1 construct: made in house; host or cells: E. coli BL21(DE3) with pUBS520; pBAT4 plasmid
# T1 sequence (P68400 2-329): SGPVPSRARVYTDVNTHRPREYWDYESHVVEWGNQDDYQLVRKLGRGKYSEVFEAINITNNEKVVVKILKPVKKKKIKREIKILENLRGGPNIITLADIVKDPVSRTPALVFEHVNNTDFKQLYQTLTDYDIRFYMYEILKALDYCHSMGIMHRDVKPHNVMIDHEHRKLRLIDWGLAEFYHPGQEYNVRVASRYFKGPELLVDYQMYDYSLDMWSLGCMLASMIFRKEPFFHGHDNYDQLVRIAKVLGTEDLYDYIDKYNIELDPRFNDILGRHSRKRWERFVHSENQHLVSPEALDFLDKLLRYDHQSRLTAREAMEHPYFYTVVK
# [2] = target: T1, CK2α kinase; experiment: Analytical SEC, CK2α / RAD-CK2β; assay type: binding; conditions: Superdex 75 5/150, 20 mM HEPES pH 7.5, 500 mM NaCl, calibrated
# Description: Purified protein samples, either as individual proteins or equimolar mixtures, were separated by analytical SEC over an Superdex 75 5/150 size exclusion column (GE Healthcare) equilibrated with 20 mM HEPES pH 7.5, 500 mM NaCl. Fractions from the peaks from each run were analyzed by SDS-PAGE with purified proteins as standards. The column was calibrated using molecular weight standards (blue dextran, bovine serum albumin, carbonic anhydrase, cytochrome C and aprotonin, Sigma-Aldrich cat. MWGF70) and the calibration curve used to estimate the molecular weights of the three samples (Fig. S5).
# Figure S5. MW estimation of CK2α, RAD-CK2β(186-200) and their complexes by SEC Calibration Superdex 75 5/150 HR column
# Figure S5. Molecular weight protein standards (Sigma -Aldrich, cat. no. MWGF70, gray diamonds in the plot) were used to calibrate Superdex 75 5/150 column. Blue dextran was used to define the void volume (1.24 ml)and total volume was assumed to be […]. Elution positions of CK2α,(blue […]
# main article, were used to estimate the molecular weights of the proteins from the calibration curve. […]
molecule,measurement,setting,value
CK2α kinase: Human CK2α kinase (residues 2-329) (protein) SGPVPSRARVYTDVNTHRPREYWDYESHVVEWGNQDDYQLVRKLGRGKYSEVFEAINITNNEKVVVKILKPVKKKKIKREIKILENLRGGPNIITLADIVKDPVSRTPALVFEHVNNTDFKQLYQTLTDYDIRFYMYEILKALDYCHSMGIMHRDVKPHNVMIDHEHRKLRLIDWGLAEFYHPGQEYNVRVASRYFKGPELLVDYQMYDYSLDMWSLGCMLASMIFRKEPFFHGHDNYDQLVRIAKVLGTEDLYDYIDKYNIELDPRFNDILGRHSRKRWERFVHSENQHLVSPEALDFLDKLLRYDHQSRLTAREAMEHPYFYTVVK,Sedimentation coefficient (s-value),"[1]; SV AUC, 50 000 rpm, 280 nm, CK2α 6 μM, RAD-CK2β 14.3 μM, complex 5 μM each",3.0 S
same,Molar mass from SV AUC,[1]; boundary spreading,41.5 kDa
same,Molecular weight equivalent of SEC elution volume,[2],45.7 kDa
